Assay results taken from the supplement of paper PMC9732359.
± gives the uncertainty stated by the source.

Assay: protein stability index of a GFP-peptide fusion (yeast GPS) (PSI 1-4); higher = more stable; sorted into four equal gates, so the index is relative within each strain
Conditions: pdr5∆
Method in brief: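 Plasmids isolated from each sorting gate were PCR-amplified and Illumina-sequenced, and barcodes assigned the reads to strains. The gates, four of equal size, were set by GFP/Cherry fluorescence ratio on mid-log cultures in leucine-free medium. These cultures were yeast carrying a pooled library of tiled 17-residue yeast protein peptides fused downstream of GFP on a plasmid that also expresses Cherry. The protein stability index is the sum of every gate's read frequency times its gate number.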
For QKLFVQVSNFAPQVYII [GAL11], the protein stability index was 2.45 ± 0.061.

Same assay, conditions: san1∆
PSAFNFTGNNSTPGGGS [YOR098C/NUP1] showed a protein stability index of 3.14 ± 0.13. PSAGPHKLRESLPLIVF [RPS4A] gave a protein stability index of 1.69 ± 0.087. With PSKDSFTKYKPARSSSL [YAR002W/NUP60] the protein stability index was 2.44 ± 0.053. For PSKSQTNFKEEITDASL [YML103C/NUP188], the protein stability index was 3.02 ± 0.18. With PSPPNVIITDGTLLRED [YDL088C/ASM4] the protein stability index was 2.97 ± 0.045. For PSRKDCMEVASAFMKFS [BRR2], the protein stability index was 2.83 ± 0.06. Work on PSTDKNEKKTETNAKPF [YLR335W/NUP2] yielded a protein stability index of 3.34 ± 0.044. Sequence PSTRSNFILEVFGTIIP [YJL039C/NUP192] has a protein stability index of 1.28 ± 0.23. Work on PSTSITLAERQQLAYDL [RPN9] yielded a protein stability index of 2.8 ± 0.06. In the case of PSTTLFNFGGKSDTVTS [YOR098C/NUP1], the protein stability index is reported as 2.4 ± 0.073. Work on PTEMEPDLDTECFISMQ [SWI1] yielded a protein stability index of 3.23 ± 0.047. PTFTFGSSALADNKEDV [YLR335W/NUP2] gave a protein stability index of 3.06 ± 0.041. PTFVEFILIPLYKIFSY [SNU114] showed a protein stability index of 1.62 ± 0.073. Sequence PTIEYVQCPTVIKLAKY [ARP9] has a protein stability index of 1.75 ± 0.068. In the case of PTPAASAPAPAAAAPAP [FAS2], the protein stability index is reported as 2.72 ± 0.074. Sequence PTRYVLIRNVGTNTYRL [POP1] has a protein stability index of 1.12 ± 0.28. PTVHNSTAAAPIAAPKK [PGD1] showed a protein stability index of 2.83 ± 0.052. For PVDHPHGGGNHQHIGKA [RPL2A], the protein stability index was 3.09 ± 0.051. Work on PVENIWADIFAKALDGQ [RPP1A] yielded a protein stability index of 2.49 ± 0.23. For PVIDYELKEITSLPDWC [BRR2], the protein stability index was 3.1 ± 0.086. PVKALNECIASTSNALK [SNF12] showed a protein stability index of 2.75 ± 0.05. With PVKLDENSANSTVASAL [SIR4] the protein stability index was 2.76 ± 0.09. Work on PVLDNPFTNEAHMWPRV [POP3] yielded a protein stability index of 2.99 ± 0.11. PVLFNRQPSLHKMSMMA [RPO21] gave a protein stability index of 3.05 ± 0.23. Work on PVRPVRVRHEDVETVKR [RPC53] yielded a protein stability index of 2.88 ± 0.055. For PYAIVKGKARLGTLVNQ [RPL8A], the protein stability index was 2.74 ± 0.16. Work on PYFDYIFNDILAHVDQI [YJL039C/NUP192] yielded a protein stability index of 2.39 ± 0.099. PYQHPPNIFPNLTYYNE [ITC1] gave a protein stability index of 2.66 ± 0.045. PYTGWVDSKTKEPVDDK [FAS2] showed a protein stability index of 3.05 ± 0.045. PYYKYLCEEYLVNNGQS [RPN7] showed a protein stability index of 2.61 ± 0.088. For QAHEIVIPSYSKWFNLE [SWI3], the protein stability index was 1.81 ± 0.071. In the case of QAHTLYNSVRPFGVSTI [PRE10], the protein stability index is reported as 2.92 ± 0.095. In the case of QAIPKFQMNCYAKEDAF [RPN2], the protein stability index is reported as 2.17 ± 0.067. QALDISKKGKPTVNKKP [SRP72] gave a protein stability index of 2.36 ± 0.16. Work on QALEKIGIVEISPKGGR [RPS19A] yielded a protein stability index of 2.2 ± 0.13. QAMGVFLTNYNVRMDTM [RPB2] gave a protein stability index of 3.63 ± 0.11. In the case of QAPFSTSTKDKNSSTSN [MED1], the protein stability index is reported as 3.12 ± 0.054. With QAQAQAQAQAQAQAQAQ [GAL11] the protein stability index was 3.101 ± 0.024. With QAQQAQQAQARLQQGRR [SNF2] the protein stability index was 2.88 ± 0.048. For QDIKKAKRVENFNSSAP [DSN1], the protein stability index was 3.02 ± 0.16. In the case of QDISSSTRVEFEKLYSD [FAS2], the protein stability index is reported as 3.27 ± 0.14. For QDKEGIPPDQQRLIFAG [RPS31], the protein stability index was 3.19 ± 0.035. Sequence QDKEKIDNLKDTLKENA [ITC1] has a protein stability index of 3.02 ± 0.043. Sequence QDLNQRFQDPYVAIVVD [RRI1] has a protein stability index of 2.29 ± 0.15. For QDRQQLLPLVVSNISCL [ECM29], the protein stability index was 1.29 ± 0.074. For QDSILIIYPRSQTTLVQ [ARP9], the protein stability index was 2.23 ± 0.079. Work on QDVDFYKNLDRGFSKDL [RRP6] yielded a protein stability index of 3.25 ± 0.074. Sequence QEAVNSLKGYKIENSVQ [CSI1] has a protein stability index of 3.32 ± 0.051. QEESFSLNLGIGIVEIA [SRB8] showed a protein stability index of 2.08 ± 0.29. Sequence QEGMNECPGHFGHIDLA [RPO21] has a protein stability index of 3.33 ± 0.074. With QELISKAFTNWNKRDFM [ISW2] the protein stability index was 1.59 ± 0.15. In the case of QELKADSPFSLICQNNL [SRP72], the protein stability index is reported as 2.66 ± 0.054. QESSSLRLLEVTDDDRL [POP8] showed a protein stability index of 2.5 ± 0.12. For QEYAIEMKIGSIESKLE [SMC1], the protein stability index was 2.74 ± 0.1. In the case of QFGNACISLSGVPNYLV [SSN2], the protein stability index is reported as 2.37 ± 0.21. Sequence QFKKLTHAQRTGLSQIP [PRP8] has a protein stability index of 2.12 ± 0.14. With QFLYEKHYKNIPRNSPL [RPC82] the protein stability index was 1.68 ± 0.066. With QFSESTHNDIDSTAVAL [YJL039C/NUP192] the protein stability index was 2.71 ± 0.087. Work on QFSQLNDPNAAVNMTQN [MED6] yielded a protein stability index of 2.86 ± 0.039. Work on QFTRFFLLVPSKQVQVS [ECM29] yielded a protein stability index of 1.19 ± 0.11. With QFVSKLVDNLNAEVVAG [BRR2] the protein stability index was 2.22 ± 0.05. In the case of QGAKTYLERTLDTFIKI [PRE5], the protein stability index is reported as 2.81 ± 0.067. QGIIYAKVNRPAKIVNF [RPN5] showed a protein stability index of 2.37 ± 0.12. Sequence QGNPKKRPGKLSDYIPG [CYT1] has a protein stability index of 3.23 ± 0.044. QGTGKKTASLGNSKDDL [ISW2] gave a protein stability index of 3.41 ± 0.057. With QHDKMVDKIFEKVNNNA [SWI1] the protein stability index was 2.87 ± 0.067. Work on QHEQQKQQEQLEQQKQP [YMR153W/NUP53] yielded a protein stability index of 3.04 ± 0.049. QHTTESDNISRKYEISF [RPB2] gave a protein stability index of 2.92 ± 0.098. Work on QHYKNNSISSQPASYHS [SSN2] yielded a protein stability index of 3.05 ± 0.065. QIAKFVVGLGERVSPTD [RPT1] gave a protein stability index of 2.05 ± 0.13. Sequence QIIFGVVEKKTVGSSNG [RPO21] has a protein stability index of 1.66 ± 0.19. Sequence QIRDVMERFSVLCNSNI [RRP6] has a protein stability index of 2.18 ± 0.15. QITPTVPHSHPSDMVIP [SNF12] gave a protein stability index of 2.63 ± 0.046. QIVPYIEKLTDGHLRAP [BRR2] gave a protein stability index of 3.12 ± 0.037. QKIRNSEGISEATREVF [ITC1] gave a protein stability index of 2.81 ± 0.15.
